Assay results: a protein production outcome set (Wang et al. 2014)

Experiment: label from the status in PepcDB records

Sequence | protein production
MSSPARSPSVGGATPKQGARTPTRGIASQDVETPMRMGPGRAVRPSDNISLPPTSPGNISLPATSPARGLGANMSEIDLSSPLNYGTPSSMGSIRTPRSGIRGTPLRARPDIRTDKRIRQVAIGGGSGLEPIPEKGSETTDPVSESSQAPQLVVWGTNVVVSQCKSKFKSFIMRFIDPSAEQDEISENIDVNQPLYLQKLEEIHTLEEPYLNLNCAHLKTFDQDLYRQLICYPQEVIPGFDMAINEMFFERYPAALLEHQIQVRPFNADKTRNMRSLNPEDMDQLISISGMVIRSSNVIPEMREAFFSCNICSFSTTVEVDRGRINQPTLCTNCNTNHCFRLIHNRSEFTDKQLVKLQESPDDMAAGQTPHNVLLYAHNDLVDKVQPGDRVTVTGIYRATPLKTGGLSSSVKSVYKTHVDVVHFRKVDNKRLYEDEEGKDHIFPPERVELLQLLAKKPDIYDRLARAIAPSIYENDDIKKGILLQLFGGTKKKHATLGRQNFRSEIHLLLCGDPGTSKSQMLQYVFNLVPRSQYTSGRGSSAVGLTAYVTKDPETRQLVLQTGALVLADNGVCCIDEFDKMNDSTRSVLHEVMEQQTLSIAKAGIICQLNARTSILAAANPAESQWNKRKNIIDNVQLPHTLLSRFDLIFLVLDPQDEIFDKRLASHLVSLYYVTRHEEEDTMFDMSVLRDYIAYAREHLSPTLSDEAQQRLIQAYVDMRKVGAGRGQISAYPRQLESLIRLSEAHAKVRLSNQVELLDVEEAWRLHREALKQSATDPLSGKIDVGILTTGLSTAARKKRADLVAAIKENLKKKGKVLTVPYQKLFSDIKEGSQIMITREQFEDALKEVQDEGAIVVMGKNTIRIC | failed
MTQPVPVHYTLRPVSPEAHLFEATVTISHPAKDGQVFFLPAWIPGSYMIREFSKHIVGMAASAGGKPVALRQLEKNRWQAAPAKGALTLRYQVYAFDLSVRGAYLDGERGFFNGTSVFLAAEGYEGEACTVDIHAPEGKAYAEWKVATSLPAEDVKKKTGFGRYRAADYDELIDHPVEMGDFKKVSFKACGVPHEFVVSGRFQGELKRLAEDTRKICECQIKLFGEPAPFDRYVFMLFVGKDIYGGLEHRASTALVANRDDLPAPGAAEIGDGYLKLLGLISHEYFHSWNVKRMKPAAFTPYDLNREGMTRLLWAFEGITSYYDDLTLVRCGLIDEKRYLGLLAETITGVQRGAGRLKQTLEQSSFEAWTKYYRQDENSPNSIVSYYTKGSLAALALDLLIRRDSKGKQSLDDVMRALWAKWLADGKGLEEGEWEKIAIETTGLKLKPFFDLALRSTGELPLAELLKSQGVELKFEAAQGASDRGGVVDAFAGKPAPLTLGVKTAADAAGVKLLQVLDGGAAQAAGLSGGDVVVAVDKLRAYDLDKQIARFAAGDKIKLHAFRRDELMTFEVAPQAAPEDTCRLKLDAGGGKWIAGRLEHHHHHH | failed
MQFSTTPTLEGLTIVEYCGVVTGEAILGANIFRDFFAGIRDIVGGRSGAYEKELRKAREIAFEELGSQARALGADAVVGIDIDYETVGQNGSMLMVSVSGTAVKTRR | not failed
MAIEPDLGLDSTEPKLFSARLKPHRALSHNGFLILIGLVGTASFAAGLAFWLIGAWPVFGFFGLDVLALAFAFKVSFARARASEEISMTCSELRVRRTSARGEVAEWVLNPLWVRLEKIVHHDAGIERLYLVSSGRRLAIANFLGAEEKANFAKALMAALDAARRGPLYPA | failed
MKNETLHTQEDIIKMLDSLLRPAEPFWNEFYANREKDVPFFENVPDENLVSYIQKKRVSKGKVLELGCGPGRNAIYLANEGFDVTAVDVSIEGINWAKERALAKGVEIEFICDSIFNLEVQNEFDFVYDSGCLHHIPPHRRVNYVDLIKNALKSGGYFGLTCFAAGDLDERNGSEITDWDVYRGWSLQGGLAYSEEKLREIFKGFEVIEIRKMEQIEQPNTMFGESFLWTALFKKNLEHHHHHH | not failed
MGHHHHHHSHMRPELEDSTLRYLQDLLAWVEENQHRVDGAEWGVDLPSVEAQLGSHRGLHQSIEEFRAKIERARSDEGQLSPATRGAY | failed
MDVAGEKQQRKGEAIARIEAEKNAYTVAQLADEYFERMIAGRWKHPNIVRSRIEKDIKPAIGSLKVEDVKPRHIDDVLKAVMKRGAPSIANDTLRWLKRMFNYAIKRHIIEYNPAAAFLEHHHHHH | failed
